Experimental data taken from PMC3006384, “Phosphorylation of Mouse Immunity-Related GTPase (IRG) Resistance Proteins Is an Evasion Strategy for Virulent Toxoplasma gondii” (PLoS Biology, 2010).

Molecular target: the molecule itself
Experiment: light scattering; GTP-dependent oligomerisation of recombinant Irga6 monitored by conventional light scattering, as described earlier (ref. 16)

B1: recombinant wt Irga6 (bacterially expressed, from pGEX-4T-2-Irga6) (natural protein)
chain: MGQLFSSPKSDENNDLPSSFTGYFKKFNTGRKIISQEILNLIELRMRKGNIQLTNSAISDALKEIDSSVLNVAVTGETGSGKSSFINTLRGIGNEEEGAAKTGVVEVTMERHPYKHPNIPNVVFWDLPGIGSTNFPPNTYLEKMKFYEYDFFIIISATRFKKNDIDIAKAISMMKKEFYFVRTKVDSDITNEADGKPQTFDKEKVLQDIRLNCVNTFRENGIAEPPIFLLSNKNVCHYDFPVLMDKLISDLPIYKRHNFMVSLPNITDSVIEKKRQFLKQRIWLEGFAADLVNIIPSLTFLLDSDLETLKKSMKFYRTVFGVDETSLQRLARDWEIEVDQVEAMIKSPAVFKPTDEETIQERLSRYIQEFCLANGYLLPKNSFLKEIFYLKYYFLDMVTEDAKTLLKEICLRN
notes: Irga6, mouse immunity-related GTPase (IRG) protein; Expressed as N-terminal GST fusion; also called recombinant Irga6
B1: binds.
